pKd: −log10 of the molar value. Where “and” joins values, the source holds several entries; their conditions need not be identical. Equal entries are not always repeated. Where two headings read alike, the source gives them in different places.
Experiments:
[1] = target: FAM-labeled, EndoH-digested GluA2S amino-terminal domain; test: AUC
[2] = target: FAM-labeled, EndoH-digested GluA2S amino-terminal domain; test: AUC; remark: listed apart in the source
[3] = target: FAM-labeled, EndoH-digested GluA2S amino-terminal domain; test: AUC; remark: listed apart in the source
[4] = target: GluA2S amino-terminal domain expressed in GnTI- cells and digested with EndoH; test: dynamic light scattering
[5] = target: GluA2S amino-terminal domain expressed in GnTI- cells and digested with EndoH; test: AUC
[6] = target: DyLight405-labeled, EndoH-digested GluA2S amino-terminal domain; test: fluorescence polarisation
[7] = target: GluA2S amino-terminal domain expressed in GnTI- cells and digested with EndoH; test: AUC; remark: listed apart in the source
[8] = target: GluA2S amino-terminal domain expressed in GnTI- cells and digested with EndoH; test: AUC; remark: listed apart in the source
[9] = target: GluA2S amino-terminal domain expressed in GnTI- cells and digested with EndoH; test: AUC; remark: listed apart in the source
[10] = target: GluA2S amino-terminal domain expressed in GnTI- cells and digested with EndoH; test: SEC-MALS
[11] = target: GluA2S amino-terminal domain expressed in GnTI- cells and digested with EndoH; test: AUC; remark: listed apart in the source
[12] = target: GluA2S amino-terminal domain expressed in GnTI- cells and digested with EndoH; test: AUC; remark: listed apart in the source
[13] = target: DyLight405-labeled, EndoH-digested GluA2S amino-terminal domain; test: fluorescence polarisation; remark: listed apart in the source
[14] = target: GluA2S amino-terminal domain expressed in HEK293S GnTI- cells (high mannose glycans); test: SEC-MALS
[15] = target: GluA2S amino-terminal domain expressed in HEK293S GnTI- cells (high mannose glycans); test: AUC
[16] = target: GluA2S amino-terminal domain expressed in HEK293T cells (complex glycosylation); test: dynamic light scattering
[17] = target: GluA2S amino-terminal domain expressed in HEK293T cells (complex glycosylation); test: SEC-MALS
[18] = target: GluA2S amino-terminal domain expressed in HEK293T cells (complex glycosylation); test: AUC
[19] = target: GluA2S amino-terminal domain expressed in HEK293T cells (complex glycosylation); test: AUC; remark: listed apart in the source
[20] = target: GluA3 amino-terminal domain expressed in HEK293T cells (UniProt P19492); test: AUC
[21] = target: GluA3 amino-terminal domain expressed in HEK293T cells (UniProt P19492); test: AUC; remark: listed apart in the source

Sequence of GluA2S amino-terminal domain expressed in GnTI- cells and digested with EndoH (P19491 22-883): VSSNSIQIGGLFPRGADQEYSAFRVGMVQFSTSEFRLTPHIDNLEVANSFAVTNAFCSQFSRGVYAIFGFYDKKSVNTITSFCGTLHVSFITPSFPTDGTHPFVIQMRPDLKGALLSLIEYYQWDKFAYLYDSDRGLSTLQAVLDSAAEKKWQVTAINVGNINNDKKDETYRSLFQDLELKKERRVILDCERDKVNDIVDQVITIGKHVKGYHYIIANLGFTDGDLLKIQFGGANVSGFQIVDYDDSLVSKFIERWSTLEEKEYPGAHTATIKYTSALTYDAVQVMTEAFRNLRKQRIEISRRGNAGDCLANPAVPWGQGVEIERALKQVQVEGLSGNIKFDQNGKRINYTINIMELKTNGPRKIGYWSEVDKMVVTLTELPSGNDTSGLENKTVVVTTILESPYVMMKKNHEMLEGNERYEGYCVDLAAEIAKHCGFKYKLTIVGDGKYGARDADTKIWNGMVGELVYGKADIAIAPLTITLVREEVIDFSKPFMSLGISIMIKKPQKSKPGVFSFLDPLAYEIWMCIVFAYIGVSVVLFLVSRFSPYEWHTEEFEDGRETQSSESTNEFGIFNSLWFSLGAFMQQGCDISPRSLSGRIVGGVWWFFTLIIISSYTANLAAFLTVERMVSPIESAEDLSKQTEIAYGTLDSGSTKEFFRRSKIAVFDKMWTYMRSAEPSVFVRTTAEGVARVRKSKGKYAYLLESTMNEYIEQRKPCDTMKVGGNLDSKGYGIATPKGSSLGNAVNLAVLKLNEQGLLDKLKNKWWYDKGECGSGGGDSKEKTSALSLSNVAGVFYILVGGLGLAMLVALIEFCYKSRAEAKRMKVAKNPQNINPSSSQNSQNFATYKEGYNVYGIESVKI
Sequence of FAM-labeled, EndoH-digested GluA2S amino-terminal domain (P19491 22-883): as above
Sequence of GluA2S amino-terminal domain expressed in HEK293T cells (complex glycosylation) (P19491 22-883, one chain of several): as the sequence (P19491 22-883) above
Sequence of GluA2S amino-terminal domain expressed in HEK293S GnTI- cells (high mannose glycans) (P19491 22-883): as above

Question: “FAM-labeled, EndoH-digested GluA2S amino-terminal domain (domain or fragment)” was tested. Which pKd [1] did it give?
Answer: The pKd was 8.28.

Question: What about the pKd [2] of the same substance?
Answer: The pKd was 7.83.

Question: What about the pKd [3] of the same substance?
Answer: Its pKd is 7.59.

Question: What does the source list for “GluA2S amino-terminal domain expressed in GnTI- cells and digested with EndoH (domain or fragment)”?
Answer: stoichiometry N [4]: 2; pKd [5]: < 2.60; pKd [6]: 7.97 and 7.95 and 8.07; pKd [7]: 7.77; pKd [8]: 6.24; pKd [9]: 7.52; stoichiometry N [10]: 2; pKd [11]: 8.25 and 8.08 and 8.01; pKd [12]: 6.80 and 6.55; pKd [13]: 8.01

Question: Which stoichiometry N [14] does the source give for “GluA2S amino-terminal domain expressed in HEK293S GnTI- cells (high mannose glycans) (domain or fragment)” here?
Answer: The stoichiometry N was 2.

Question: What about the pKd [15] of the same substance?
Answer: Its pKd is 7.96.

Question: “GluA2S amino-terminal domain expressed in HEK293T cells (complex glycosylation) (domain or fragment)” was tested. Which stoichiometry N [16] did it give?
Answer: Its stoichiometry N is 2.

Question: What about the stoichiometry N [17] of the same substance?
Answer: The stoichiometry N was 2.

Question: And the pKd [18]?
Answer: Its pKd is 8.08.

Question: And the pKd [19]?
Answer: The pKd was 8.22.

Question: With “GluA3 amino-terminal domain expressed in HEK293T cells (from UniProt P19492 23-888) (domain or fragment)” as the substance, how does the pKd [20] read?
Answer: Its pKd is < 3.79.

Question: And the pKd [21]?
Answer: The pKd was 5.51.

Reference: paper PMC3343374
